# Reference: the nanobody polyreactivity screen of Harvey et al. (2022)
# Experiment: yeast display, Sf9 membrane polyspecificity reagent, FACS + sequencing; frameworks hold sequencing errors
# Summary of the method: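 In a synthetic yeast display library (Saccharomyces cerevisiae BJ5465), nanobody expression was induced with galactose for 36–48 hours. FACS gates were set low and high (top ~1%) using anti-HA fluorescence for expression and streptavidin fluorescence for binding of the Sf9 membrane reagent. Each polyreactivity label is drawn from the gate of origin.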
row,Sequence,polyreactivity (PSR sort gate)
1,QVQLVESGGGLVQAGGSLRLSCAASGSTFSYYAMGWYRQAPGKEREFVASISWRGGSTYYADSVKGRFTISRDNAKNTVYLQMNRLKPEDTAVYYCAASSRSRWSGYRYDYWGQGTQVTVSS,high polyreactivity
2,QVQLVESGGGLVQAGGSLRLSCAASGRTFYGYAMGWYRQAPGKERELVAVITRDGSTNYADSVKGRFTISRDNAKNTVYLQMNSLKPEDTAVYYCAAERLAYRVRWRYNQEDYWGQGTQVTVSS,high polyreactivity
3,KVHLVESGGGLVQAGGSLRLSCPAAGFTLDQYAMGWYRQAPGKEMELVAVITSGVNTYYADSVKGRFTISRDNAKNTVYLQMNSLKPEDTAVYYCAKDVCDPFYDPFEYWGQGTQVTVSS,low polyreactivity
4,QVQLVESGGGLVQAGGSLRLSCAASGSTSYTNAMGWYRQAPGKERELVAGITRSGDSTYYADSVKGRFTISRDNAKNTVYLQMNSLKPEDTAVYYCAAEYSGQYYSPVSYLYDYWGQGTQVTVSS,high polyreactivity
5,QVQLVESGGGLVQAGGSLRLSCAASGFIFTRYAMGWYRQAPGKERELVAAITRSGGRTYYADSVKGRFTISRDNAKNTVYLQMNSLKPEDTAVYYCAAEGSVGLYGLIMHYWGLGTQVTVSS,high polyreactivity
6,QVQLVESGGGLVQAGGSLRLSCAASGSTFVRYAMGWYRQAPGKERELVAAISRRGSSTYYADSVKGRFTISRDNAKNTVYLQMNSRKPEDTADYYCAVDYSPGFDDYDYWGQGTHVTVSS,high polyreactivity
7,QVQLVESGVGLVQAGGSLRLSCAASGYTFLYYAMGWYRQAPGTERELVAAISSGGRTYYADSVKGRFTISRDNAKNTVYLQMNSLKPEVTAVYYCNTGALIHNGYYGLDYWGQGTQVTVSS,high polyreactivity
8,QVQLVESGGGLVQSGGSLRLSSAAYGFIFPGNAMGWSRQAPGKEREMVAAISNSGSRTYYADSVKGRFTISRDHAKNTVYLQMNSLKPEDTAVYYCNADVHNRGWPYDYWGQGTQVTVSS,low polyreactivity
9,QVQLVESGGGLVQAGGSLRLSCAASGRIIYKYAMGWYRQAPGKERELVAAISYSGGSTYYADSVKGRFTISRDNAKNTVYLQMKSLKPEDTAVYYCNAKPPYGVRSWGDYWGQGTQVNVSS,low polyreactivity
10,QVQLVESGGGLVHAGGSLRLSCAASGGIFYVNAMGWYRQAPGKERELVADIRYSGTSTYYADSVKGRFTISRDNAKNTVYLQMNSLKPEDTAVYYCAVDAWDTTHVYEQGAERDSWGQGTQVTVSS,low polyreactivity
11,QVQLVESGGGLVQAGGSLRLSCAASGSTFDDYAMGWYRQAPGKERELVAAISSSGGRTYYADSVKGRFTISRDNAKNTVYLQMNSLKPEDTAVYYCNADSYRSRGRYEFGRFDYWGQGTQVTVSS,high polyreactivity
12,QVQLVESGGGLVQAGGSLRLSCAASGRTFVYYAMGWYRQAPGKERELVASISSVGTTKYADSVKGRFTISRDNAKNTVYLQMNSLKPEDTAVYYCAAVPLSRNIFDSWGQGTQVTVSS,low polyreactivity
13,QVQLVESGGGLVQAGGSLRLSCAASGSIFWWYAMGWYRPAPGKERELVAAISGRGGNTYYADSVKGRFTISRDNAKNTVYLQMNSLKPEDTAVYYCNADDTKYPYYTDDYWGQGTQVTVSS,low polyreactivity
14,QVQLVESGGGLVQAGGSLRLSCAASGRIFPGYAMGWYRQAPGKERELVASIRWSGDSTYYADSVKGRFTISRDNAKNTVYLQMNSLKPEDTAVYYCNRRWYRGDYWGQGTQVTVSS,low polyreactivity
15,QVQLVESWGGLVQAGGSLRLICAASGSTFRDYFLGWYRRAPGKERELVATISGSGGSTYYADSVKGRFTISRDNAKNTVYLQMNSLKPEDTAFYYCAAVSVSSWYDYWGQGTQVTVSS,low polyreactivity
16,QVHLVESGGGLVQAGGRLRLSCAASGSIFDDYAMGWYRQAPGKERELVAAITSGGSTYYADSVKGRFTISRDNAKNNVYLEMNSLKPEDTAVYYRATRYHWSSSFAPVGAYGYWGQGSQVTVSS,low polyreactivity
17,QVQLVESGGGLVQAGGSLRLSCAASGFTFRNNAMGWYRQAPGKDRELVAAITARGGSTYYADSVKGRFTISRDNAKNTVYLQMNSLKPEDTAVYYCATDDYPWGRHPWYAGYDSWGQGTQVTVSS,low polyreactivity
18,QVQLVESGGGLVQAGGSLRLSCAASGFIFSKNVMGWYRQATGKERELVALINRSGGTTYYADSVKGRFTISRDNAKNTVYLQMNSLKPEDTAVYYCAARRYGYTSITWYDYLGQGTQVTVSS,high polyreactivity
19,QVQLVESGGGLVQAGGSLRLSCAASGFTFDKNAMGWYRQAPGKERELVAAINIGSTYYADSVKGRFTISRDNAKNTVYLQMNSLKPEDSAVYYCAKEVPSGYWVNYYYWGQGTQVTVSS,low polyreactivity
20,QVQLVESGGGLVQAGGSLRLSCAASGRTFYRYAMGWYRQAPGKEREFVARITTSGGSTYYADSVKGRFTISRDNAKNTVYLQMNSLKPDDTAVYYCNASGVTYAFLRFDYWGQGTQVTVSS,high polyreactivity
21,QVQLVESGGGLVQAGGSLRLSCAASGRIFGRYVMGWYRQAPGKERELVAVISRRSGNTYYADSVKGRFTISRDYAKNTVYLQMNSLKPEDTAVLYCAARYYYSKSDRYDYWGEGTQVTVSS,high polyreactivity
22,QVQLVESGGGLVQAGGSLRLSCAASGSTLNRYAMGWYRQAPGKERELVAAISISGGRTYYADSVKGRFTISRDNAKNTVYLQMNSLKPEDTAVYYCADGNYLYSYGYGYWGQGTQVTVSS,high polyreactivity

row,Sequence,polyreactivity (PSR sort gate)
1,QVQLVESGGGLVQAGGSLRLSCAASGRIFVVNAMGWYRQAPGNERELVAAISSSSDSTYYADSVKGRCTISRDNAKNTVYLQMNSLKPEDTAVYYCAADYHYDGYWIYDYWGQGTQVTVSS,high polyreactivity
2,QVQLVESAGGLVQAGGSLRLSCAASGSIFLSNAMGWYRQAPGTERALVADIDWTGGDTYYADSVKGRFTISRDNAKNTVYLQMNSLKPEDTAFYYCAADYGYRNLLTEYGYWGQGTQVTVSS,low polyreactivity
3,QVQLVESGGGLVQAGGSLRLSCAASGRILGVYVMGWYRQAPGKERELVAAISGGGRTNYADSVKGRFTISRDNAKNTVYLQMNSLKPEDTAVYYCNAERPYQYYPGIYRWYYYWGQGTQVTVSS,low polyreactivity
4,QVQLVESGGGLVQAGGSLRLSCAASGRTFAYNAMGWYRQAPGKERELVASITSGGSTNYADSVKGRFTISRDNAKNTVYLQMNSLKPEDTAVFYCNKDGKYHRVLYDYWGQGTQVTVSS,low polyreactivity
5,QVQHVESGGGLVQAGGSLRLSCAASGSIFPLNAMGWSRQAPGQVSELVASISTGSSTYYADSVKGRFTISRDNAKNTVYLQMISLKPEDTAVYFCAVDRVLFSDFNRGYEYNYWGQGTQVTVSS,low polyreactivity
6,QVQLVESGGGLVQAGGSLRLSCAASGRTFRKYAMGWYRQAPGKERELVAAISQRGGTTYYADSVKGRFTISRDNAKNTVYLQINSLKPEDTAVYYCNVAWVGVSLVYGPFEYDYWGQGTQVTVSS,high polyreactivity
7,QVQLVESGGGLVQAGGSLRLSCAASGSIFSYYAMGWYRQAPGKERELVAVISSSGGRTYYADSVKGRFTISRDNAKNTVYLQMNSLKPEDTAVYYCARERWWGGSDYWGQGTQVTVSS,high polyreactivity
8,QVQLVESGGGLVQAGGSLRLSCAASGRIFNAYAMGWYRQAPGKERELVAAISSIGGRTYYADSVKGRFTISRDNAKNTDYLQMNSLKPEDTAVYYCAASRRSRQYRYDYWGQGTQVTVSS,high polyreactivity
9,QVQLVETAGGLVQARGSLRLSCAASGFIFRYNAMGWYRQERGKERELVAAINYRGGSTYYADSVKGRFTISRDNAKNTVYLQMNSLKPEDTAVYYCAVLTYRGRFEYWGQGTQVTVSS,high polyreactivity
10,QVQLVESGGGLLQAGGSLRLSCADSGSTFLYKAMGCYIQAPGKEREFVAAISGSGGTTYYADSVKGRFTISRDNAKNTVYLQMNSLKPEDTAVYYCAVSQSWYWYYASDYWGQGTQVTVSS,low polyreactivity
11,QVQLVESGGGLVQAGGSLRLSCAASGSIFADYTMGWYRQAPGKERELVAAISSDDSTYYADSVKGRFTISRDNAKNTVYLQMNSLKPEDTAVYYCNADGSIGPEEYWGQGTQVTVSS,low polyreactivity
12,QVQLVESGGGLVQAGGSLRLSCAASGFIFEHYAMGWYRQAPVKERELVARISWRGGSTYYADSVKGRFTISRDNAKNTVYLQMNRLKPEDTAVYYCNALEVVYFGYYPSDYWGQGTQVTVSS,low polyreactivity
13,QVQLVESGGGLVQAGGSLRLSCAASGIFFLYMGWYRQAPGKERELVAAISDSGGTTYYADSVKGRFTISRDNAKNTVYLQMNSLKPEDTAVYYCAAEIENLNWFYWDYLEYDYWGQGTQVTVSS,low polyreactivity
14,QVQLVESGGGLVQAGGSLRLSCAASGSTFVRNAMGWYRQAPWKERELVAAIRWRSGSTYYADSVKGRFTISRDNAKNTVYLQMNSLKPEDPAVYYCAVDYNSFRYGPLGYWGQGTQVTVSS,high polyreactivity
15,QVQHVESGGGLVQAGGSLRLSCAATGRIFTAYYAMGWYRQAPGKERELVASISSSGTSTYADSVKGRFTISRDNAKNTVYLQMNSLKPDDTAVYYCATRKLRTRRYDYGYWGQGTQVTVSS,low polyreactivity
16,QVQLVESGGGLVQAGGSLPLSCAASGFIFYRYTMGWYRQAPGKERELVAAITRNGVSTYYADSVKGRFTISRDNAKNTVYLQMNSLKPEDTAVYYCAAQRYRTGDSWGQGTQVTVSS,high polyreactivity
17,QVQLVESGGGLVQAGGSLRLSCAASGFTFGSYARGWYRQAPGKERELVAAISWGGGSTYYADSVKGRFTISRDNAKNTVYLQMNSLKPEDTAVYYCNADAISSFGYWGQGTQVTVSS,high polyreactivity
18,QVQLVESGGGLVQAGGSLRLSCAASGYTFLRYAMGWYRQAPGKERELVAAISRRGGRTYYADSVKGRFTISRDNAKNTVYLQMNSLKPEDTAVYYCAAVNSTQTIGLMDYWGQGTQVTVSS,high polyreactivity
19,QVQLVESGGGLVQAGGSLRLSCAASGGTFSKYAMGWYRQAPGKEREFVAAITVSGGGTYYADSVKGRFTISRDNAKYTVYLQMNSLKPEDTAVYDCAADLAWTASDYWGQVTQVTVSS,low polyreactivity
20,QVQLVESGGGLVQAGGSLRLSCAASGMGWYRQAPGKERELVAAITSTDGSTYYADSVKGRFTISRDNAKNTVYLQMNSLTPEDTAVYYCAVEPYLWPVFSDDDYWGQGTQVTVSS,low polyreactivity
21,QVQLVESGGGLVQAGGSLRLSCAASGSIFVVNGMGWYRQAPGKERELVAAITGDGTTYYADSVKGRFTISRDNAKNTVYLQMNSLKPEDSAVYYCAALFTPALSEYDYWGQGTQVTVSS,high polyreactivity
